Test results published in patent US20200079833A1 (AstraZeneca / MedImmune, published 2020).
Starred links: 1 amine or outer side, 2 acyl side, 3 side chain; linkers in the order of their positions; H or OH if unused. Non-standard residues stand in square brackets, D forms with d. Groups on a side chain read outwards from the residue. Primed or numbered codes have the meaning given here. No end group written: not given here. *: point of attachment. γGlu = O=C(O)[C@H](CCC(=O)[*:2])N[*:1]; Stearoyl = CCCCCCCCCCCCCCCCCC(=O)*; αMeF = C[C@](N)(Cc1ccccc1)C(=O)O; αMeK = C[C@](N)(CCCCN)C(=O)O; αMeS = C[C@](N)(CO)C(=O)O; PEG2′ = not defined here; Aib = CC(C)(N)C(=O)O

T1: GLP-1R (INS1e assay) (UniProt P32301 22-463, limits assumed)
T1 sequence (looked up): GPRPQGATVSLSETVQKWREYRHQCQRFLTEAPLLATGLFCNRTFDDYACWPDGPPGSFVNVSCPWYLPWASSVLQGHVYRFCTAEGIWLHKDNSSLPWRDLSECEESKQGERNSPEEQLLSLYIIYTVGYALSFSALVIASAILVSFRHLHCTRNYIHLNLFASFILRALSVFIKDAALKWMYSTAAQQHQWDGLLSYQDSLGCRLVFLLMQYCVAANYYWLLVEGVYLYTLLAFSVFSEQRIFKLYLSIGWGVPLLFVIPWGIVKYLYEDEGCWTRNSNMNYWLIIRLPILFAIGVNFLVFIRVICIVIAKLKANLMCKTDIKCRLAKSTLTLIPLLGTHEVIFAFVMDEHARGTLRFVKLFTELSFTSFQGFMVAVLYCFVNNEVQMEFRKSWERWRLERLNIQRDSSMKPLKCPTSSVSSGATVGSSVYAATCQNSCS

B1: SEQ ID NO 56 (peptide)
peptide: H[Aib]EGS[αMeF]TSDV[αMeS]S[αMeF]LEGEAAK([PEG2′-PEG2′-PEG2′-Stearoyl])E[αMeF]IA[αMeF]VVKGG-NH2
B2: SEQ ID NO 3 (peptide)
peptide: H[Aib]EGS[αMeF]TSDV[αMeS]S[αMeF]LEGEAAK([PEG2′-PEG2′-γGlu-Stearoyl])E[αMeF]IA[αMeF]VV[αMeK]GG-NH2
B3: SEQ ID NO 47 (peptide)
peptide: H[Aib]EGS[αMeF]TSDV[αMeS]SYLEGEAAK([PEG2′-PEG2′-γGlu-Stearoyl])E[αMeF]IA[αMeF]VV[αMeK]GG-NH2
B4: SEQ ID NO 55 (peptide)
peptide: H[Aib]EGS[αMeF]TSDV[αMeS]S[αMeF]LEGEAAK([PEG2′-PEG2′-PEG2′-Stearoyl])E[αMeF]IAWVV[αMeK]GG-NH2
B5: SEQ ID NO 33 (peptide)
peptide: H[Aib]EGS[αMeF]TSDV[αMeS]S[αMeF]LEGEAAK([PEG2′-PEG2′-γGlu-Stearoyl])E[αMeF]IA[αMeF]VV[αMeK]GG-NH2
B6: SEQ ID NO 49 (peptide)
peptide: H[Aib]EGS[αMeF]TSDV[αMeS]S[αMeF]LEGEAAK([PEG2′-PEG2′-γGlu-Stearoyl])E[αMeF]IAWVV[αMeK]GG-NH2
B7: SEQ ID NO 51 (peptide)
peptide: H[Aib]EGSFTSDV[αMeS]S[αMeF]LEGEAAK([PEG2′-PEG2′-PEG2′-Stearoyl])E[αMeF]IA[αMeF]VV[αMeK]GG-NH2
B8: SEQ ID NO 52 (peptide)
peptide: H[Aib]EGS[αMeF]TSDVSS[αMeF]LEGEAAK([PEG2′-PEG2′-PEG2′-Stearoyl])E[αMeF]IA[αMeF]VV[αMeK]GG-NH2
B9: SEQ ID NO 44 (peptide)
peptide: H[Aib]EGS[αMeF]TSDV[αMeS]S[αMeF]LEGEAAEE[αMeF]IA[αMeF]VVEGG-NH2
modifications: N-terminus assumed
SMILES: CC[C@H](C)[C@H](NC(=O)[C@](C)(Cc1ccccc1)NC(=O)[C@H](CCC(=O)O)NC(=O)[C@H](CCC(=O)O)NC(=O)[C@H](C)NC(=O)[C@H](C)NC(=O)[C@H](CCC(=O)O)NC(=O)CNC(=O)[C@H](CCC(=O)O)NC(=O)[C@H](CC(C)C)NC(=O)[C@](C)(Cc1ccccc1)NC(=O)[C@H](CO)NC(=O)[C@](C)(CO)NC(=O)[C@@H](NC(=O)[C@H](CC(=O)O)NC(=O)[C@H](CO)NC(=O)[C@@H](NC(=O)[C@](C)(Cc1ccccc1)NC(=O)[C@H](CO)NC(=O)CNC(=O)[C@H](CCC(=O)O)NC(=O)C(C)(C)NC(=O)[C@@H](N)Cc1c[nH]cn1)[C@@H](C)O)C(C)C)C(=O)N[C@@H](C)C(=O)N[C@@](C)(Cc1ccccc1)C(=O)N[C@H](C(=O)N[C@H](C(=O)N[C@@H](CCC(=O)O)C(=O)NCC(=O)NCC(N)=O)C(C)C)C(C)C
B10: SEQ ID NO 50 (peptide)
peptide: H[Aib]EGS[αMeF]TSDV[αMeS]S[αMeF]LEGEAAK([PEG2′-PEG2′-γGlu-Stearoyl])E[αMeF]IA[αMeF]VVKGG-NH2
B11: SEQ ID NO 54 (peptide)
peptide: H[Aib]EGS[αMeF]TSDV[αMeS]S[αMeF]LEGEAAK([PEG2′-PEG2′-PEG2′-Stearoyl])EFIA[αMeF]VV[αMeK]GG-NH2
B12: SEQ ID NO 42 (peptide)
peptide: H[Aib]EGS[αMeF]TSDV[αMeS]S[αMeF]LEGEAAEE[αMeF]IA[αMeF]VV[αMeK]GG-NH2
modifications: N-terminus assumed
SMILES: CC[C@H](C)[C@H](NC(=O)[C@](C)(Cc1ccccc1)NC(=O)[C@H](CCC(=O)O)NC(=O)[C@H](CCC(=O)O)NC(=O)[C@H](C)NC(=O)[C@H](C)NC(=O)[C@H](CCC(=O)O)NC(=O)CNC(=O)[C@H](CCC(=O)O)NC(=O)[C@H](CC(C)C)NC(=O)[C@](C)(Cc1ccccc1)NC(=O)[C@H](CO)NC(=O)[C@](C)(CO)NC(=O)[C@@H](NC(=O)[C@H](CC(=O)O)NC(=O)[C@H](CO)NC(=O)[C@@H](NC(=O)[C@](C)(Cc1ccccc1)NC(=O)[C@H](CO)NC(=O)CNC(=O)[C@H](CCC(=O)O)NC(=O)C(C)(C)NC(=O)[C@@H](N)Cc1c[nH]cn1)[C@@H](C)O)C(C)C)C(=O)N[C@@H](C)C(=O)N[C@@](C)(Cc1ccccc1)C(=O)N[C@H](C(=O)N[C@H](C(=O)N[C@@](C)(CCCCN)C(=O)NCC(=O)NCC(N)=O)C(C)C)C(C)C
B13: SEQ ID NO 43 (peptide)
peptide: H[Aib]EGS[αMeF]TSDV[αMeS]S[αMeF]LEGEAA[αMeK]E[αMeF]IA[αMeF]VVEGG-NH2
modifications: N-terminus assumed
SMILES: CC[C@H](C)[C@H](NC(=O)[C@](C)(Cc1ccccc1)NC(=O)[C@H](CCC(=O)O)NC(=O)[C@](C)(CCCCN)NC(=O)[C@H](C)NC(=O)[C@H](C)NC(=O)[C@H](CCC(=O)O)NC(=O)CNC(=O)[C@H](CCC(=O)O)NC(=O)[C@H](CC(C)C)NC(=O)[C@](C)(Cc1ccccc1)NC(=O)[C@H](CO)NC(=O)[C@](C)(CO)NC(=O)[C@@H](NC(=O)[C@H](CC(=O)O)NC(=O)[C@H](CO)NC(=O)[C@@H](NC(=O)[C@](C)(Cc1ccccc1)NC(=O)[C@H](CO)NC(=O)CNC(=O)[C@H](CCC(=O)O)NC(=O)C(C)(C)NC(=O)[C@@H](N)Cc1c[nH]cn1)[C@@H](C)O)C(C)C)C(=O)N[C@@H](C)C(=O)N[C@@](C)(Cc1ccccc1)C(=O)N[C@H](C(=O)N[C@H](C(=O)N[C@@H](CCC(=O)O)C(=O)NCC(=O)NCC(N)=O)C(C)C)C(C)C
B14: SEQ ID NO 17 (peptide)
peptide: H[Aib]EGS[αMeF]TSDV[αMeS]S[αMeF]LEGEAA[αMeK]E[αMeF]IA[αMeF]VV[αMeK]GG-NH2
modifications: N-terminus assumed
SMILES: CC[C@H](C)[C@H](NC(=O)[C@](C)(Cc1ccccc1)NC(=O)[C@H](CCC(=O)O)NC(=O)[C@](C)(CCCCN)NC(=O)[C@H](C)NC(=O)[C@H](C)NC(=O)[C@H](CCC(=O)O)NC(=O)CNC(=O)[C@H](CCC(=O)O)NC(=O)[C@H](CC(C)C)NC(=O)[C@](C)(Cc1ccccc1)NC(=O)[C@H](CO)NC(=O)[C@](C)(CO)NC(=O)[C@@H](NC(=O)[C@H](CC(=O)O)NC(=O)[C@H](CO)NC(=O)[C@@H](NC(=O)[C@](C)(Cc1ccccc1)NC(=O)[C@H](CO)NC(=O)CNC(=O)[C@H](CCC(=O)O)NC(=O)C(C)(C)NC(=O)[C@@H](N)Cc1c[nH]cn1)[C@@H](C)O)C(C)C)C(=O)N[C@@H](C)C(=O)N[C@@](C)(Cc1ccccc1)C(=O)N[C@H](C(=O)N[C@H](C(=O)N[C@@](C)(CCCCN)C(=O)NCC(=O)NCC(N)=O)C(C)C)C(C)C
B15: SEQ ID NO 45 (peptide)
peptide: H[Aib]EGSFTSDV[αMeS]S[αMeF]LEGEAAK([PEG2′-PEG2′-γGlu-Stearoyl])E[αMeF]IA[αMeF]VV[αMeK]GG-NH2
B16: SEQ ID NO 46 (peptide)
peptide: H[Aib]EGS[αMeF]TSDVSS[αMeF]LEGEAAK([PEG2′-PEG2′-γGlu-Stearoyl])E[αMeF]IA[αMeF]VV[αMeK]GG-NH2
B17: SEQ ID NO 6 (peptide)
peptide: HXEGTFTSDVSSYLEGQAAKEFIAWLVKGRK
modifications: Aib2; K(ε-(PEG)2-(PEG)2-γE-Stearate) after R30; C-terminal amide
B18: SEQ ID NO 48 (peptide)
peptide: H[Aib]EGS[αMeF]TSDV[αMeS]S[αMeF]LEGEAAK([PEG2′-PEG2′-γGlu-Stearoyl])EFIA[αMeF]VV[αMeK]GG-NH2
B19: SEQ ID NO 53 (peptide)
peptide: H[Aib]EGS[αMeF]TSDV[αMeS]SYLEGEAAK([PEG2′-PEG2′-PEG2′-Stearoyl])E[αMeF]IA[αMeF]VV[αMeK]GG-NH2

biological target: T1, GLP-1R (INS1e assay); assay: cell-based or functional assay

| INS1e assay EC50 GLP-1 R n1 [nM] | INS1e assay EC50 GLP-1 R n2 [nM] | INS1e assay EC50 Mean pM GLP-1R [pM] | Binder |
| --- | --- | --- | --- |
| 0.0352 | 0.077 | 56 | B1 |
| 3.59 | 3.78 | 3680 | B2 |
| 7.13 | 12.2 | 9660 | B3 |
| 0.0125 | 0.0101 | 11 | B4 |
| 3.59 | 3.78 | 3680 | B5 |
| 9.35 | 10.7 | 10000 | B6 |
| 0.0247 | 0.0207 | 23 | B7 |
| 0.0214 | 0.0193 | 20 | B8 |
| 0.475 | 0.435 | 455 | B9 |
| 22.1 | 42.6 | 32400 | B10 |
| 0.00267 | 0.00837 | 6 | B11 |
| 0.207 | 0.167 | 187 | B12 |
| 0.016 | 0.0105 | 13 | B13 |
| 0.0051 | 0.00787 | 6 | B14 |
| 76.1 | 113 | 94600 | B15 |
| 52.6 | 83.4 | 68000 | B16 |
| 0.104 | 0.139 | 122 | B17 |
| 0.729 | 0.871 | 800 | B18 |
| 0.00625 | 0.00815 | 7 | B19 |
